# According to the Immune Epitope Database (IEDB):
# How the values were obtained:
# Assay in all cases: IEDB peptide-MHC binding, purified MHC/competitive/radioactivity; ≥ and ≤ were set here for values at or beyond the usual limits of such assays
# HLA-A*68:02 = target: HLA-A*68:02
# HLA-A*02:01 = target: HLA-A*02:01
# HLA-A*02:02 = target: HLA-A*02:02
# HLA-A*02:06 = target: HLA-A*02:06
# HLA-A*02:03 = target: HLA-A*02:03
# [1] = source organism: Vaccinia virus WR
# [2] = source organism: Hepacivirus hominis
# [3] = source organism: Influenza A virus
Sequence,IC50 (HLA-A*68:02; [1]) [nM],IC50 (HLA-A*02:01; [1]) [nM],IC50 (HLA-A*02:02; [1]) [nM],IC50 (HLA-A*02:06; [1]) [nM],IC50 (HLA-A*02:03; [1]) [nM],also measured
SLCSCICTV,–,–,–,–,–,IC50 (HLA-A*68:02; source organism: SARS-CoV1): 1670 nM; IC50 (HLA-A*02:01; source organism: SARS-CoV1): 3.2 nM; IC50 (HLA-A*02:02; source organism: SARS-CoV1): 4 nM; IC50 (HLA-A*02:06; source organism: SARS-CoV1): 5.8 nM; IC50 (HLA-A*02:03; source organism: SARS-CoV1): 4.2 nM
ILRNYLRLYI,2650,1,0.39,65,0.9,–
FTEGKINPLL,243,162,150,86,595,–
RLRQDTEDI,4170,219,230,4580,387,–
FAISYCRAFI,1.7,1970,105,35,38,–
MIIGEPIIVA,280,44,42,124,111,–
DTMSIYIAVA,17,83,19,1480,24,–
VLWAHGFEL,–,–,–,–,–,IC50 (HLA-A*68:02; source organism: SARS-CoV1): 3890 nM; IC50 (HLA-A*02:01; source organism: SARS-CoV1): 0.4 nM; IC50 (HLA-A*02:02; source organism: SARS-CoV1): 2.4 nM; IC50 (HLA-A*02:06; source organism: SARS-CoV1): 20 nM; IC50 (HLA-A*02:03; source organism: SARS-CoV1): 34 nM
YVSVMNFIPI,55,127,341,0.11,152,–
VLALYSPPL,1400,0.19,0.22,33,0.41,–
RAAIDRQVSV,54,554,626,212,41,–
LLLWISVKV,–,–,–,–,–,IC50 (HLA-A*68:02; source organism: SARS-CoV1): 2740 nM; IC50 (HLA-A*02:01; source organism: SARS-CoV1): 13 nM; IC50 (HLA-A*02:02; source organism: SARS-CoV1): 94 nM; IC50 (HLA-A*02:06; source organism: SARS-CoV1): 10 nM; IC50 (HLA-A*02:03; source organism: SARS-CoV1): 198 nM
NVSGVPHSV,2.8,592,825,278,24,–
NIFMTLVPV,2.6,11,86,227,6.4,–
ETIEILRNYL,0.13,944,474,0.28,1410,–
YLRGHTESI,506,3.7,0.21,91,0.18,–
TAYIGTSNWT,555,4150,1760,220,1050,–
NIGCAVNTPV,11,23,126,176,30,–
KLPTLFGRGV,509,273,190,53,33,–
NMDWRSLTQV,826,4.2,100,1.7,17,–
LISFFGLFDI,82,175,76,171,108,–
MMNERDVSV,566,1.1,0.44,64,0.27,–
FTLLFQLCT,–,–,–,–,–,IC50 (HLA-A*68:02; source organism: SARS-CoV1): 2740 nM; IC50 (HLA-A*02:01; source organism: SARS-CoV1): 133 nM; IC50 (HLA-A*02:02; source organism: SARS-CoV1): 1100 nM; IC50 (HLA-A*02:06; source organism: SARS-CoV1): 140 nM; IC50 (HLA-A*02:03; source organism: SARS-CoV1): 744 nM
IVAMLLTHGA,505,4910,1160,82,153,–

Sequence,IC50 (HLA-A*68:02; [1]) [nM],IC50 (HLA-A*02:01; [1]) [nM],IC50 (HLA-A*02:02; [1]) [nM],IC50 (HLA-A*02:06; [1]) [nM],IC50 (HLA-A*02:03; [1]) [nM],also measured
DTCLLAISAV,118,46,2460,106,93,–
GTSVIRSNI,96,666,386,1610,45,–
NVDIIDLLL,262,858,461,22,4090,–
ALLSCISVPV,–,–,–,–,–,IC50 (HLA-A*68:02; [2]): 1270 nM; IC50 (HLA-A*02:01; [2]): 28 nM; IC50 (HLA-A*02:02; [2]): 41 nM; IC50 (HLA-A*02:06; [2]): 76 nM; IC50 (HLA-A*02:03; [2]): 43 nM
DIISSKQYPA,220,2890,552,3100,2430,–
WLGAAITLVV,264,123,20,1840,78,–
GILGFVFTLT,–,–,–,–,–,IC50 (HLA-A*68:02; [3]): 730 nM; IC50 (HLA-A*02:01; [3]): 640 nM; IC50 (HLA-A*02:02; [3]): 960 nM; IC50 (HLA-A*02:06; [3]): 618 nM; IC50 (HLA-A*02:03; [3]): 911 nM
QLMCQPILLL,–,–,–,–,–,IC50 (HLA-A*68:02; source organism: SARS-CoV1): 2310 nM; IC50 (HLA-A*02:01; source organism: SARS-CoV1): 12 nM; IC50 (HLA-A*02:02; source organism: SARS-CoV1): 92 nM; IC50 (HLA-A*02:06; source organism: SARS-CoV1): 325 nM; IC50 (HLA-A*02:03; source organism: SARS-CoV1): 217 nM
SLVITYCLVT,447,373,286,824,566,–
FTFGDTALYV,175,181,24,3.5,48,–
ILQMREIIT,1160,380,4100,1230,1340,–
MLWCKDGHV,–,–,–,–,–,IC50 (HLA-A*68:02; source organism: SARS-CoV1): 74 nM; IC50 (HLA-A*02:01; source organism: SARS-CoV1): 30 nM; IC50 (HLA-A*02:02; source organism: SARS-CoV1): 10 nM; IC50 (HLA-A*02:06; source organism: SARS-CoV1): 362 nM; IC50 (HLA-A*02:03; source organism: SARS-CoV1): 11 nM
FIMRNFLRSI,131,0.47,28,0.45,0.12,–
VMYAFTTPLI,132,3.1,0.72,12,4.8,–
NASKFVYVSV,101,1010,4550,823,8.6,–
FIPIIYSKA,78,163,0.56,95,1.8,–
WISDNTHIYL,4.8,12,0.14,1.8,1.2,–
ILPDKIDGL,4000,62,1,43,3.5,–
LMIFISSFL,35,0.32,0.65,18,0.13,–
IVSKCIVQSV,50,612,123,552,31,–
FVFTLTVPS,–,–,–,–,–,IC50 (HLA-A*68:02; [3]): 25 nM; IC50 (HLA-A*02:01; [3]): 514 nM; IC50 (HLA-A*02:02; [3]): 394 nM; IC50 (HLA-A*02:06; [3]): 18 nM; IC50 (HLA-A*02:03; [3]): 270 nM
IVDTVSALV,–,–,–,–,–,IC50 (HLA-A*68:02; source organism: SARS-CoV1): 301 nM; IC50 (HLA-A*02:01; source organism: SARS-CoV1): 58 nM; IC50 (HLA-A*02:02; source organism: SARS-CoV1): 17 nM; IC50 (HLA-A*02:06; source organism: SARS-CoV1): 43 nM; IC50 (HLA-A*02:03; source organism: SARS-CoV1): 528 nM
TVQEFIFSAL,7.8,321,81,44,90,–
KLYGYASLTT,1740,19,1.9,34,0.26,–

Sequence,IC50 (HLA-A*68:02; [1]) [nM],IC50 (HLA-A*02:01; [1]) [nM],IC50 (HLA-A*02:02; [1]) [nM],IC50 (HLA-A*02:06; [1]) [nM],IC50 (HLA-A*02:03; [1]) [nM],also measured
IMETIDPVYI,821,127,29,349,239,–
IMAFILGII,2520,166,17,175,30,–
IIPFIAYFVL,76,991,715,852,4730,–
RIVVALSSLV,8.5,51,48,9.6,7.2,–
SIDHCSSFIV,732,23,172,30,772,–
KVYLSTFNM,1820,535,482,265,786,–
VMYAFTTPL,112,0.87,0.57,5.7,1.3,–
VMCGGSLYV,–,–,–,–,–,IC50 (HLA-A*68:02; source organism: SARS-CoV1): 2910 nM; IC50 (HLA-A*02:01; source organism: SARS-CoV1): 0.39 nM; IC50 (HLA-A*02:02; source organism: SARS-CoV1): 0.61 nM; IC50 (HLA-A*02:06; source organism: SARS-CoV1): 6.8 nM; IC50 (HLA-A*02:03; source organism: SARS-CoV1): 7.5 nM
LIANIFTPLV,–,–,–,–,–,IC50 (HLA-A*68:02; source organism: SARS-CoV1): 19 nM; IC50 (HLA-A*02:01; source organism: SARS-CoV1): 12 nM; IC50 (HLA-A*02:02; source organism: SARS-CoV1): 0.4 nM; IC50 (HLA-A*02:06; source organism: SARS-CoV1): 16 nM; IC50 (HLA-A*02:03; source organism: SARS-CoV1): 13 nM
IMDKEQLLKI,3240,890,311,1340,288,–
YVSPTEMVDV,235,21,63,5.2,50,–
WSYNAELLVA,–,–,–,–,–,IC50 (HLA-A*68:02; [3]): 1620 nM; IC50 (HLA-A*02:01; [3]): 256 nM; IC50 (HLA-A*02:02; [3]): 242 nM; IC50 (HLA-A*02:06; [3]): 15 nM; IC50 (HLA-A*02:03; [3]): 14 nM
KVTGSYNLV,538,754,66,193,43,–
ILASFSAST,–,–,–,–,–,IC50 (HLA-A*68:02; source organism: SARS-CoV1): 1220 nM; IC50 (HLA-A*02:01; source organism: SARS-CoV1): 16 nM; IC50 (HLA-A*02:02; source organism: SARS-CoV1): 1.6 nM; IC50 (HLA-A*02:06; source organism: SARS-CoV1): 457 nM; IC50 (HLA-A*02:03; source organism: SARS-CoV1): 5.3 nM
STTENAAYQV,15,1180,928,101,4700,–
MAFDISVNA,1.8,149,191,13,15,–
TIKESLLKET,296,85,1580,87,149,–
TLIQYRQQL,725,134,128,1880,410,–
RIITILQDI,1490,146,583,2,5.6,–
RVLYDEFVTI,1640,28,153,6.6,178,–
CVMYASALV,–,–,–,–,–,IC50 (HLA-A*68:02; source organism: SARS-CoV1): 0.89 nM; IC50 (HLA-A*02:01; source organism: SARS-CoV1): 9.3 nM; IC50 (HLA-A*02:02; source organism: SARS-CoV1): 4.5 nM; IC50 (HLA-A*02:06; source organism: SARS-CoV1): 7.4 nM; IC50 (HLA-A*02:03; source organism: SARS-CoV1): 2.9 nM
ITYCLVTHM,1730,3100,1280,1410,2330,–
